The text below walks through data of paper PMC6269477.

Test [1] has as its target PBP1A (untagged, purified) (E. coli) (UniProt P02918).
For test [2], the target named is PBP1B (untagged, purified) (E. coli) (UniProt P02919).
Sequence of PBP1B (untagged, purified) (E. coli) (P02919 46-844 limits assumed): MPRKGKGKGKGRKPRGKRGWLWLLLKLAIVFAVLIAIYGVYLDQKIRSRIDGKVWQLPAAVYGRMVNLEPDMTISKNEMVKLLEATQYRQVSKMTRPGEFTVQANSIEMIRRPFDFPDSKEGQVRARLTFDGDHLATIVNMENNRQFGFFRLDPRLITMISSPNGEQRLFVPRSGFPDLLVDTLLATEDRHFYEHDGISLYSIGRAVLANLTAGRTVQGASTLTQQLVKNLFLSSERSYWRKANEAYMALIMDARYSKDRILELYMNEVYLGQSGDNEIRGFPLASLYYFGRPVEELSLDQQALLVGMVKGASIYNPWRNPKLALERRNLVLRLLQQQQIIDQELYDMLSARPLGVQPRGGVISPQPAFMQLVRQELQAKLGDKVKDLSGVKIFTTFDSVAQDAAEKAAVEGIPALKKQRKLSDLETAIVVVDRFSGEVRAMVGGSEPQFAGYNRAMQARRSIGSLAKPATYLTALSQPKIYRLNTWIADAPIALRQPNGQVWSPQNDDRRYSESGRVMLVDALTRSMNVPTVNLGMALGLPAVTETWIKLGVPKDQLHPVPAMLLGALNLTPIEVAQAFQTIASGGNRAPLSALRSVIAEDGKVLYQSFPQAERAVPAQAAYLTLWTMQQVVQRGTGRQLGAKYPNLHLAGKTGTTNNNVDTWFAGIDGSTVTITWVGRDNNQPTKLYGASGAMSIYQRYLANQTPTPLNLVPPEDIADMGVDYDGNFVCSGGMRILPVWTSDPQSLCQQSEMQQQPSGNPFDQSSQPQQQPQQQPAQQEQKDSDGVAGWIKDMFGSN

Sequence of PBP1A (untagged, purified) (E. coli) (P02918 whole entry): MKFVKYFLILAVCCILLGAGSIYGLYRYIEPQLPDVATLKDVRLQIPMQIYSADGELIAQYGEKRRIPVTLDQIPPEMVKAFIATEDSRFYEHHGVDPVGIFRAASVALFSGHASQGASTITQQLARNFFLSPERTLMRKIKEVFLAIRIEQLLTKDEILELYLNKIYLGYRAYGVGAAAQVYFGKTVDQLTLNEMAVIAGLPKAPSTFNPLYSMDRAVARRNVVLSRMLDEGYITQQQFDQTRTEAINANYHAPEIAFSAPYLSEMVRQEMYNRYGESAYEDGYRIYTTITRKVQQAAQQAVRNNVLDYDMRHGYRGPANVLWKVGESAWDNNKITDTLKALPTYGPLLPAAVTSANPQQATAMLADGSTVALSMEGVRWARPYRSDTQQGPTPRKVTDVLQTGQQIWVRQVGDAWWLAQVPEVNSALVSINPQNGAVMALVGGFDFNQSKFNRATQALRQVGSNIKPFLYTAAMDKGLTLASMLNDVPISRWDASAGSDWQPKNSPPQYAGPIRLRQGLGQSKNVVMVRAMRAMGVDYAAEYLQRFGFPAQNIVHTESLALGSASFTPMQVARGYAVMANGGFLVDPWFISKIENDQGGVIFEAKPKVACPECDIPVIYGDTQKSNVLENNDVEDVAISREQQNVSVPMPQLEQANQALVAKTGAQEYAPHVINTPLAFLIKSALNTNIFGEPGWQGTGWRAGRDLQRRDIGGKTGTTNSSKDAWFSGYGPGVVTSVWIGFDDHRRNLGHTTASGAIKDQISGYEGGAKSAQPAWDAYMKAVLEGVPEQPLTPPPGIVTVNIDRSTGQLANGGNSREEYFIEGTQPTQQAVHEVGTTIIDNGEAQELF

On to “FtsN-His (from UniProt P29131 1-319) (natural protein)”, for which, in test [1], the GTase rate of PBP1A (consumption of dansylated lipid II), normalised to PBP1A alone, with FtsN was 1.3 fold. The substance also gave a GTase rate of PBP1B (consumption of dansylated lipid II), normalised to PBP1B alone, with FtsN in test [2] of 2.6 fold.

In test [1], “ZipA (untagged, oligohistidine tag removed by thrombin) (from UniProt P77173 1-328) (natural protein)” showed a GTase rate of PBP1A (consumption of dansylated lipid II), normalised to PBP1A alone, with ZipA of 2.6 fold; a GTase rate of PBP1A, normalised to PBP1A alone, with ZipA and FtsN together of 3.4 fold. In test [2], this substance showed a GTase rate of PBP1B (consumption of dansylated lipid II), normalised to PBP1B alone, with ZipA of 1.4 fold; a GTase rate of PBP1B, normalised to PBP1B alone, with ZipA and FtsN together of 3 fold.
